The target of assay [1] is T1, human MerTK (human, UniProt Q12866 26-499).
T1 construct: also called HuMER
T1 sequence: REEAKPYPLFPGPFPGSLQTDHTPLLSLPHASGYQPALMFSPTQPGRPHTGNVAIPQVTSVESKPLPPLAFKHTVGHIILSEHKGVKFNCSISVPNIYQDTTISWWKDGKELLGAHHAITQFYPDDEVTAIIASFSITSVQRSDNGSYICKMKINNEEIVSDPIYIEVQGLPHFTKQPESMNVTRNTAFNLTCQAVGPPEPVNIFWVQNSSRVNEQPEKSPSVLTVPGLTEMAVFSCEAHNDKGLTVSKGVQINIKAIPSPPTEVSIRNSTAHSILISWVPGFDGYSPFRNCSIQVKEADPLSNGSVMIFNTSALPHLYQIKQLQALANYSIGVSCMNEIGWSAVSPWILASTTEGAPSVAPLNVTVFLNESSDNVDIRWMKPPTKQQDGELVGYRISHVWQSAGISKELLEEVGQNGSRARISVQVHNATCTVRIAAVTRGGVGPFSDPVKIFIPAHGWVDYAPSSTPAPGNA
The assay can be described thus: SPR BIAcore T200, Ab captured, 25C. Here is the method:
(§1) All binding affinity determinations were obtained using Surface Plasmon Resonance (SPR) measurements from a BIAcore™-T200 instrument. Briefly, each rabbit or humanized antibody was captured to achieve approximately 100 RU (Response Units). Then, 3-fold serial dilutions of MerTK from various species (0.4 nM to 100 nM) diluted in HBS-EP buffer (0.01M HEPES pH 7.4, 0.15M NaCl, 3 mM EDTA and 0.05% v/v surfactant P20) was injected into the BIAcore™-T200 instrument at 25° C. or 37° C. with a flow rate of 30 μl/min. Association rates (kₒₙ) and dissociation rates (koff) were calculated using a simple one-to-one Langmuir binding model (BIAcore T200 evaluation software version 2.0). The equilibrium dissociation constant (KD) was calculated as the ratio koff/kₒₙ.
On the technique in general: Surface plasmon resonance follows binding to a sensor surface in real time, without labels.

Assay [2] addresses T2, mouse MerTK (mouse, UniProt Q60805 23-496).
T2 construct: also called MuMER
T2 sequence (looked up): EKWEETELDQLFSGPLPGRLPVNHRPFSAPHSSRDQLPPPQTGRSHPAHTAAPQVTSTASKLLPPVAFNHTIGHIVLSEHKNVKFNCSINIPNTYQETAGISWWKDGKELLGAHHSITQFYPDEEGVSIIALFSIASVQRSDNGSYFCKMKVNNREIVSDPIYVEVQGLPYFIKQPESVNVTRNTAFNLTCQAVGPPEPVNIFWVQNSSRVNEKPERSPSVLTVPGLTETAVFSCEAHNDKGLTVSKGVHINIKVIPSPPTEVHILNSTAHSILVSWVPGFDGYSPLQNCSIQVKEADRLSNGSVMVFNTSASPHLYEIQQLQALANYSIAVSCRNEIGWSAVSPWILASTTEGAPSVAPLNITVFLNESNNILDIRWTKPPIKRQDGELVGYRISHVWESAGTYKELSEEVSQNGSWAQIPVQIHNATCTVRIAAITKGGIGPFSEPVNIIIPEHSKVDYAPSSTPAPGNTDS
The assay can be described thus: SPR BIAcore T200, Ab captured, 25C. The procedure:
as §1

Assay [3] concerns the target T3, cynomolgus monkey MerTK (cynomolgus monkey, UniProt A0A2K5V1H9 32-505).
T3 construct: Soluble analyte in SPR; also called Cyno MerTK
T3 sequence: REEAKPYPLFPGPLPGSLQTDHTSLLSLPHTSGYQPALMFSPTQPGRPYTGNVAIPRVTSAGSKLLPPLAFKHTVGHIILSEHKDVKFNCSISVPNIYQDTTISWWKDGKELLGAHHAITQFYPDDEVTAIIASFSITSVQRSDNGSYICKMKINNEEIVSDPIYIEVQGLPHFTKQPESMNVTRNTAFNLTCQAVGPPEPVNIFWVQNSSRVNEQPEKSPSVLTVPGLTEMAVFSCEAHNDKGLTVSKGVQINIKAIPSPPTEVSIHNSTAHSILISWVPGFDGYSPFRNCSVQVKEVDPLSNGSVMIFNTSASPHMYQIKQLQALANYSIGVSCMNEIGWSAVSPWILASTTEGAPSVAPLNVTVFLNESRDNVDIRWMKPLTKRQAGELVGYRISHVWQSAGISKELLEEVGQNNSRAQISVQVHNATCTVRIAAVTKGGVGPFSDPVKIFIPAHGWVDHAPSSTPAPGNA
The experiment in a line: SPR BIAcore T200, Ab captured, 25C. The procedure:
as §1

The target of a further assay is T4, HuMER (R26-A499) (human, UniProt Q12866 26-499).
T4 construct: Extracellular domain with both Ig-like and both fibronectin-like domains; also called human MerTK extracellular domain
T4 sequence: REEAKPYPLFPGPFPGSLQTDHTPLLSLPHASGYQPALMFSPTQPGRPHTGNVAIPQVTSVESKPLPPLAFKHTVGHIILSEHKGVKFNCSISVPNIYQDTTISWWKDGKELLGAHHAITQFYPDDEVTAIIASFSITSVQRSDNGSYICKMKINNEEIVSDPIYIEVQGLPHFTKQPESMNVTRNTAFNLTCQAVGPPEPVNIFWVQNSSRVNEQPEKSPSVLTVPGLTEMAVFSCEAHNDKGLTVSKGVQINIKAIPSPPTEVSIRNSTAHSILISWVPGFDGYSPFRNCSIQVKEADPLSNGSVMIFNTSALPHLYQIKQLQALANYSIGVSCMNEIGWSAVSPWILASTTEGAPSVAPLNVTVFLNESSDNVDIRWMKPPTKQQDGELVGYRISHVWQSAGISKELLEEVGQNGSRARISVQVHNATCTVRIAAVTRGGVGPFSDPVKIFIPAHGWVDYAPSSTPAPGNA
The experiment in a line: SPR BIAcore T200, Ab captured, 25C. Here is the method: (§2) Binding affinity determinations were obtained using Surface Plasmon Resonance (SRP) measurements from a BIAcore™-T200 instrument. Briefly, each rabbit antibody was captured to achieve approximately 100 RU (Response Units). Then, 3-fold serial dilutions of the various MerTK domains (0.4 nM to 100 nM) diluted in HBS-EP buffer (0.01M HEPES pH 7.4, 0.15M NaCl, 3 mM EDTA and 0.05% v/v surfactant P20) was injected into the BIAcore™-T200 instrument at 25° C. or 37° C. with a flow rate of 30 μl/min. Association rates (kₒₙ) and dissociation rates (koff) were calculated using a simple one-to-one Langmuir binding model (BIAcore T200 evaluation software version 2.0). The equilibrium dissociation constant (KD) was calculated as the ratio koff/kₒₙ.
(§3) Antibody epitope determination was assessed by BIAcore analysis for rabbit antibodies binding against both the human and mouse MerTK extracellular domain (HuMER R26-A499 and MuMER E23-S496), Ig1&2 domain, Ig1-only domain, and Ig2-only domain (TABLE 18). Human MerTK and its domains are shown in light gray, while mouse MerTK and its domains are shown in dark gray.

A further assay deals with T5, MuMER (E23-S496) (mouse, UniProt Q60805 23-496).
T5 construct: range 23-496; also called mouse MerTK extracellular domain
T5 sequence (looked up): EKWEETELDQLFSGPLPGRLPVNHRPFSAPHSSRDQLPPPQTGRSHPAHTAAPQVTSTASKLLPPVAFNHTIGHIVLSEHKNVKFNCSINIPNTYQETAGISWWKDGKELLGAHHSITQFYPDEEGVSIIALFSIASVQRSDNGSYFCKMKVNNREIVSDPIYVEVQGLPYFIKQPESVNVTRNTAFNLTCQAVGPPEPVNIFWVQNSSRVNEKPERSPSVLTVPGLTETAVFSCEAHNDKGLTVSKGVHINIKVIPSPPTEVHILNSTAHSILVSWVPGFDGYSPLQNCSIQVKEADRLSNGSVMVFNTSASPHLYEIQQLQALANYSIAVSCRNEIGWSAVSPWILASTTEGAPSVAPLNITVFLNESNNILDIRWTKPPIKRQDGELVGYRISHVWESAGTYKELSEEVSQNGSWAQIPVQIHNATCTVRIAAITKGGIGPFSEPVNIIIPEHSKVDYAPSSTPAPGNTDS
The assay can be described thus: SPR BIAcore T200, Ab captured, 25C. Here is the method: as §2, §3

The target of a further assay is T6, rat MerTK (rat, UniProt P57097 23-496, limits assumed).
T6 construct: Soluble analyte in SPR
T6 sequence (looked up): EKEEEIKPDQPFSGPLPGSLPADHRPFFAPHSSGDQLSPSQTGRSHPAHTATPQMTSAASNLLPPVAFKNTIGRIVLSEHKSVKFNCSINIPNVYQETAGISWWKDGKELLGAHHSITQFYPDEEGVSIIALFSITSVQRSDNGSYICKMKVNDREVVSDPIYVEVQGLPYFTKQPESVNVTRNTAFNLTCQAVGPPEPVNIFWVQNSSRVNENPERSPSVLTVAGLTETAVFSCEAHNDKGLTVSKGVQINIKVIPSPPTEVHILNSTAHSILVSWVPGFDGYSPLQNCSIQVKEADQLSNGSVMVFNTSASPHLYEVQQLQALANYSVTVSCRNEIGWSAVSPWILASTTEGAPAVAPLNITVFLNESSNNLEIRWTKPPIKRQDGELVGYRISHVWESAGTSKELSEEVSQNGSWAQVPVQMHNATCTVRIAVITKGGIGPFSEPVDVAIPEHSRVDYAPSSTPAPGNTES
The assay can be described thus: SPR BIAcore T200, Ab captured, 37C. Here is the method: as §1

The target of assay [4] is T1, human MerTK. The experiment in a line: SPR BIAcore T200, Ab captured, 37C. The procedure: as §1
The target of assay [5] is T2, mouse MerTK. The experiment in a line: SPR BIAcore T200, Ab captured, 37C. The procedure: as §1
Assay [6] concerns the target T3, cynomolgus monkey MerTK. The assay can be described thus: SPR BIAcore T200, Ab captured, 37C. Here is the method:
as §1

In general, Kd refers to the concentration at which binding is half-saturated.

B1: Rbt10F7 (antibody, V domains shown)
VH: QSVEESGGRLVTPGTPLTLTCTVSGFSLSGYAMSWVRQAPGKGLEYIGVISSSGSSYYPSWAKGRFTISKTSTTVDLQITSPTTEDTATYFCARVQFYVGYAVYGYGIIDRLDLWGQGTLVTVSS
VL: AAVLTQTPSPVSATMGGTVSISCQSSKSVYNNNWLSWYQQKPGQPPKLLIYRASTLESGVPSRFKGSGSGTQFTLTISDVHCDDAATYFCAGGYSSSSSANAFGGGTEVVVK
notes: Recombinant rabbit monoclonal antibody, Expi293, protein A purified
On to B1, for which the Kd turned out to be 7 nM with human MerTK [1]; 4.1 nM in the assay with mouse MerTK [2]; 4.7 nM with cynomolgus monkey MerTK [3]; 7 nM in the assay with HuMER (R26-A499); 4.1 nM in the assay with MuMER (E23-S496); 5.8 nM with rat MerTK. Also, the Kd with human MerTK [4] was 10.9 nM; with mouse MerTK [5], 2.4 nM; in the assay with cynomolgus monkey MerTK [6], 5.1 nM.

For the origin of these results see patent US20220135701A1 (Genentech, published 2022).
